Test results taken from IntAct's records for PubMed 19141287.

B1: Mitotic checkpoint serine/threonine-protein kinase BUB1 (Homo sapiens), O43683 (parent)
chain: MDTPENVLQMLEAHMQSYKGNDPLGEWERYIQWVEENFPENKEYLITLLEHLMKEFLDKKKYHNDPRFISYCLKFAEYNSDLHQFFEFLYNHGIGTLSSPLYIAWAGHLEAQGELQHASAVLQRGIQNQAEPREFLQQQYRLFQTRLTETHLPAQARTSEPLHNVQVLNQMITSKSNPGNNMACISKNQGSELSGVISSACDKESNMERRVITISKSEYSVHSSLASKVDVEQVVMYCKEKLIRGESEFSFEELRAQKYNQRRKHEQWVNEDRHYMKRKEANAFEEQLLKQKMDELHKKLHQVVETSHEDLPASQERSEVNPARMGPSVGSQQELRAPCLPVTYQQTPVNMEKNPREAPPVVPPLANAISAALVSPATSQSIAPPVPLKAQTVTDSMFAVASKDAGCVNKSTHEFKPQSGAEIKEGCETHKVANTSSFHTTPNTSLGMVQATPSKVQPSPTVHTKEALGFIMNMFQAPTLPDISDDKDEWQSLDQNEDAFEAQFQKNVRSSGAWGVNKIISSLSSAFHVFEDGNKENYGLPQPKNKPTGARTFGERSVSRLPSKPKEEVPHAEEFLDDSTVWGIRCNKTLAPSPKSPGDFTSAAQLASTPFHKLPVESVHILEDKENVVAKQCTQATLDSCEENMVVPSRDGKFSPIQEKSPKQALSSHMYSASLLRLSQPAAGGVLTCEAELGVEACRLTDTDAAIAEDPPDAIAGLQAEWMQMSSLGTVDAPNFIVGNPWDDKLIFKLLSGLSKPVSSYPNTFEWQCKLPAIKPKTEFQLGSKLVYVHHLLGEGAFAQVYEATQGDLNDAKNKQKFVLKVQKPANPWEFYIGTQLMERLKPSMQHMFMKFYSAHLFQNGSVLVGELYSYGTLLNAINLYKNTPEKVMPQGLVISFAMRMLYMIEQVHDCEIIHGDIKPDNFILGNGFLEQDDEDDLSAGLALIDLGQSIDMKLFPKGTIFTAKCETSGFQCVEMLSNKPWNYQIDYFGVAATVYCMLFGTYMKVKNEGGECKPEGLFRRLPHLDMWNEFFHVMLNIPDCHHLPSLDLLRQKLKKVFQQHYTNKIRALRNRLIVLLLECKRSRK

Variants of: B1
Details: with KNL1, Q8NG31-2
Chain of KNL1, Q8NG31-2 (Q8NG31 other isoform, or with tags, fused parts or gaps): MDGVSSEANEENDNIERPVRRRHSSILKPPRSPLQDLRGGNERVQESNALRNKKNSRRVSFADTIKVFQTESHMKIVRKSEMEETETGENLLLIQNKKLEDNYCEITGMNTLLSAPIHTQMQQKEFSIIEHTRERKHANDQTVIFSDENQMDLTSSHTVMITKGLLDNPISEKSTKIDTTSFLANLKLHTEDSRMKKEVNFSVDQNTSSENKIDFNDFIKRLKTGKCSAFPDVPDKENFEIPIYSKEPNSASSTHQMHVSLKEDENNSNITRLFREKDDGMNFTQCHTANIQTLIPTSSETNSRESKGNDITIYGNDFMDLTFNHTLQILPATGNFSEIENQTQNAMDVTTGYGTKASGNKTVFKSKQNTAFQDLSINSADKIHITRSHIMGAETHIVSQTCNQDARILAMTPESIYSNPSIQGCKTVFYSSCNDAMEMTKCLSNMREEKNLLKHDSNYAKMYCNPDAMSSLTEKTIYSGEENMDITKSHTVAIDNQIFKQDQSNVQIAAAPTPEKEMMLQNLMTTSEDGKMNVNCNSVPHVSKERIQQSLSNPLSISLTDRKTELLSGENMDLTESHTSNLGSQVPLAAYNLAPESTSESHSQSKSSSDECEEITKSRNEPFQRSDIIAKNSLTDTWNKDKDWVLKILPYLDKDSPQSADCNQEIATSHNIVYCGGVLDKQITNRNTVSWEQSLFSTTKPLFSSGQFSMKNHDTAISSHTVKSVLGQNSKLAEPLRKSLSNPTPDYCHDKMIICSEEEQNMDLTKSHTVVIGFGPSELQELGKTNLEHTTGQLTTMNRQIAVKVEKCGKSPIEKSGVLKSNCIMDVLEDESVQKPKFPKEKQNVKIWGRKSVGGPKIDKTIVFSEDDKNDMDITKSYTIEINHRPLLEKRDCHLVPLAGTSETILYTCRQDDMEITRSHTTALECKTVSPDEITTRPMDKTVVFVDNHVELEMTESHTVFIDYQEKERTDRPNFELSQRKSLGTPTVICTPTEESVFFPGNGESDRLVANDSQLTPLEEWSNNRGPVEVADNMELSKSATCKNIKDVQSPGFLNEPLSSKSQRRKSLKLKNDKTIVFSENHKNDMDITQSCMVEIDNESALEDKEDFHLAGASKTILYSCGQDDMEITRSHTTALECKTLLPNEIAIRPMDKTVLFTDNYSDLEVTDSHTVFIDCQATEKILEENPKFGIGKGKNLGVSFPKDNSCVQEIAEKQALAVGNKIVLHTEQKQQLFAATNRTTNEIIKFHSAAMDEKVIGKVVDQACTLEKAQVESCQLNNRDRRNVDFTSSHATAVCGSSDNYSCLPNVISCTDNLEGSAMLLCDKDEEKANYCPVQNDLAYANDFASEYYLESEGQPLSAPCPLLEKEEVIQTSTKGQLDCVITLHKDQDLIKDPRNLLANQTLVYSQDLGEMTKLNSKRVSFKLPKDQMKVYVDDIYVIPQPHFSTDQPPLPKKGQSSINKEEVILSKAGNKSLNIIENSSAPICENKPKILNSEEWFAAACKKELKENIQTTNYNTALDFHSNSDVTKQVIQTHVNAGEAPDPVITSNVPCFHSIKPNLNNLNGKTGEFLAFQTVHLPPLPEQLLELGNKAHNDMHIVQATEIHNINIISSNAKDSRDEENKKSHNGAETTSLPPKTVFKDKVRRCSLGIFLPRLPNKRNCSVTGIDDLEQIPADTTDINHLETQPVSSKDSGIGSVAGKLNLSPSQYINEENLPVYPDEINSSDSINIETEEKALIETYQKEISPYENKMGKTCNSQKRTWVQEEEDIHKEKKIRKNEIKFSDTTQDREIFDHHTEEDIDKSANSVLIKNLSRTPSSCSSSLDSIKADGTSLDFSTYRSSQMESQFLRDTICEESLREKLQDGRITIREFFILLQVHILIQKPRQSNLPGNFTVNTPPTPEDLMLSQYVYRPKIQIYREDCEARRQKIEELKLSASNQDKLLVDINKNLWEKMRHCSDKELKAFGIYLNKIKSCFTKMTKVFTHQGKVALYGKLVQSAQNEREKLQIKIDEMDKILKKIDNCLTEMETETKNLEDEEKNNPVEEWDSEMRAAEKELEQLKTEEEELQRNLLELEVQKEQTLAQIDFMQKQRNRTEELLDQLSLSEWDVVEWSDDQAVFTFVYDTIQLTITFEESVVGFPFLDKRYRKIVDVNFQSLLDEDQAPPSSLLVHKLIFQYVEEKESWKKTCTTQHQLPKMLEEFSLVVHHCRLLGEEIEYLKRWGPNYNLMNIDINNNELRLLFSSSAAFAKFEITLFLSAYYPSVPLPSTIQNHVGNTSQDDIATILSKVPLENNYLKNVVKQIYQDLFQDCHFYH

Row | Variant | effect of a mutation on the interaction
1 | G93A;I94G;G95L | disrupting interaction
2 | D65G | disrupting interaction
3 | L45G;L49G | disrupting interaction
4 | G20S;N21Q;D22A | disrupting interaction
5 | G93A;G95A | disrupting interaction
